Reference: patent publication US20260167699A1 (Chugai, published 2026)

B1: GpH7-A5/GpH7-B3 variant P331_08L/GpL16-k0 (antibody, human IgG1, kappa)
heavy 1: not shown
heavy 2: not shown
light: DIVMTQSPLSLPVTPGEPASISCQASESLVHSNRNTYLHWYLQKPGQSPQLLIYKVSNRFSGVPDRFSGSGSGTDFTLKISRVEAEDVGVYYCSQNTHVPPTFGQGTKVEIERTVAAPSVFIFPPSDEQLKSGTASVVCLLNNFYPREAKVQWKVDNALQSGNSQESVTEQDSKDSTYSLSSTLTLSKADYEKHKVYACEVTHQGLSSPVTKSFNRGEC
notes: copies: 1 + 1 + 2
B2: GpH7-A5/GpH7-B3 variant S239_03V/GpL16-k0 (antibody, human IgG1, kappa)
heavy 1: not shown
heavy 2: not shown
light: B1 light
notes: copies: 1 + 1 + 2
B3: GpH7-A5/GpH7-B3 variant S239_19Q/GpL16-k0 (antibody, human IgG1, kappa)
heavy 1: not shown
heavy 2: not shown
light: B1 light
notes: copies: 1 + 1 + 2
B4: GpH7-A5/GpH7-B3 variant Q295_04F/GpL16-k0 (antibody, human IgG1, kappa)
heavy 1: not shown
heavy 2: not shown
light: B1 light
notes: copies: 1 + 1 + 2
B5: GpH7-A5/GpH7-B3 variant S267_01G/GpL16-k0 (antibody, human IgG1, kappa)
heavy 1: not shown
heavy 2: not shown
light: B1 light
notes: copies: 1 + 1 + 2
B6: GpH7-A5/GpH7-B3 variant S239_02A/GpL16-k0 (antibody, human IgG1, kappa)
heavy 1: not shown
heavy 2: not shown
light: B1 light
notes: copies: 1 + 1 + 2
B7: GpH7-A5/GpH7-B3 variant S267_09D/GpL16-k0 (antibody, human IgG1, kappa)
heavy 1: not shown
heavy 2: not shown
light: B1 light
notes: copies: 1 + 1 + 2
B8: GpH7-A5/GpH7-B3 variant P331_19Q/GpL16-k0 (antibody, human IgG1, kappa)
heavy 1: not shown
heavy 2: not shown
light: B1 light
notes: copies: 1 + 1 + 2
B9: GpH7-A5/GpH7-B3 variant P331_16H/GpL16-k0 (antibody, human IgG1, kappa)
heavy 1: not shown
heavy 2: not shown
light: B1 light
notes: copies: 1 + 1 + 2
B10: GpH7-A5/GpH7-B3 variant S239_10E/GpL16-k0 (antibody, human IgG1, kappa)
heavy 1: not shown
heavy 2: not shown
light: B1 light
notes: copies: 1 + 1 + 2
B11: GpH7-A5/GpH7-B3 variant Q295_02A/GpL16-k0 (antibody, human IgG1, kappa)
heavy 1: not shown
heavy 2: not shown
light: B1 light
notes: copies: 1 + 1 + 2
B12: GpH7-A5/GpH7-B3 variant Q295_07I/GpL16-k0 (antibody, human IgG1, kappa)
heavy 1: not shown
heavy 2: not shown
light: B1 light
notes: copies: 1 + 1 + 2
B13: GpH7-A5/GpH7-B3 variant P331_20W/GpL16-k0 (antibody, human IgG1, kappa)
heavy 1: not shown
heavy 2: not shown
light: B1 light
notes: copies: 1 + 1 + 2
B14: GpH7-A5/GpH7-B3 variant Q295_01G/GpL16-k0 (antibody, human IgG1, kappa)
heavy 1: not shown
heavy 2: not shown
light: B1 light
notes: copies: 1 + 1 + 2
B15: GpH7-A5/GpH7-B3 variant S239_06M/GpL16-k0 (antibody, human IgG1, kappa)
heavy 1: not shown
heavy 2: not shown
light: B1 light
notes: copies: 1 + 1 + 2
B16: GpH7-A5/GpH7-B3 variant Q295_10E/GpL16-k0 (antibody, human IgG1, kappa)
heavy 1: not shown
heavy 2: not shown
light: B1 light
notes: copies: 1 + 1 + 2
B17: GpH7-A5/GpH7-B3 variant Q295_09D/GpL16-k0 (antibody, human IgG1, kappa)
heavy 1: not shown
heavy 2: not shown
light: B1 light
notes: copies: 1 + 1 + 2
B18: GpH7-A5/GpH7-B3 variant Q295_05P/GpL16-k0 (antibody, human IgG1, kappa)
heavy 1: not shown
heavy 2: not shown
light: B1 light
notes: copies: 1 + 1 + 2
B19: GpH7-A5/GpH7-B3 variant Q295_15Y/GpL16-k0 (antibody, human IgG1, kappa)
heavy 1: not shown
heavy 2: not shown
light: B1 light
notes: copies: 1 + 1 + 2
B20: GpH7-A5/GpH7-B3 variant S239_14T/GpL16-k0 (antibody, human IgG1, kappa)
heavy 1: not shown
heavy 2: not shown
light: B1 light
notes: copies: 1 + 1 + 2
B21: GpH7-A5/GpH7-B3 variant S239_09D/GpL16-k0 (antibody, human IgG1, kappa)
heavy 1: not shown
heavy 2: not shown
light: B1 light
notes: copies: 1 + 1 + 2
B22: GpH7-A5/GpH7-B3 variant Q295_06M/GpL16-k0 (antibody, human IgG1, kappa)
heavy 1: not shown
heavy 2: not shown
light: B1 light
notes: copies: 1 + 1 + 2
B23: GpH7-A5/GpH7-B3 variant P331_18N/GpL16-k0 (antibody, human IgG1, kappa)
heavy 1: not shown
heavy 2: not shown
light: B1 light
notes: copies: 1 + 1 + 2
B24: GpH7-A5/GpH7-B3 variant P331_09D/GpL16-k0 (antibody, human IgG1, kappa)
heavy 1: not shown
heavy 2: not shown
light: B1 light
notes: copies: 1 + 1 + 2
B25: GpH7-A5/GpH7-B3 variant Q295_16H/GpL16-k0 (antibody, human IgG1, kappa)
heavy 1: not shown
heavy 2: not shown
light: B1 light
notes: copies: 1 + 1 + 2
B26: GpH7-A5/GpH7-B3 variant Q295_13S/GpL16-k0 (antibody, human IgG1, kappa)
heavy 1: not shown
heavy 2: not shown
light: B1 light
notes: copies: 1 + 1 + 2
B27: GpH7-A5/GpH7-B3 variant Q295_08L/GpL16-k0 (antibody, human IgG1, kappa)
heavy 1: not shown
heavy 2: not shown
light: B1 light
notes: copies: 1 + 1 + 2
B28: GpH7-A5/GpH7-B3 variant P331_11K/GpL16-k0 (antibody, human IgG1, kappa)
heavy 1: not shown
heavy 2: not shown
light: B1 light
notes: copies: 1 + 1 + 2
B29: GpH7-A5/GpH7-B3 variant P331_14T/GpL16-k0 (antibody, human IgG1, kappa)
heavy 1: not shown
heavy 2: not shown
light: B1 light
notes: copies: 1 + 1 + 2
B30: GpH7-A5/GpH7-B3 variant P331_13S/GpL16-k0 (antibody, human IgG1, kappa)
heavy 1: not shown
heavy 2: not shown
light: B1 light
notes: copies: 1 + 1 + 2
B31: GpH7-A5/GpH7-B3 variant P331_15Y/GpL16-k0 (antibody, human IgG1, kappa)
heavy 1: not shown
heavy 2: not shown
light: B1 light
notes: copies: 1 + 1 + 2
B32: GpH7-A5/GpH7-B3 variant S239_08L/GpL16-k0 (antibody, human IgG1, kappa)
heavy 1: not shown
heavy 2: not shown
light: B1 light
notes: copies: 1 + 1 + 2
B33: GpH7-A5/GpH7-B3 variant Q295_18N/GpL16-k0 (antibody, human IgG1, kappa)
heavy 1: not shown
heavy 2: not shown
light: B1 light
notes: copies: 1 + 1 + 2
B34: GpH7-A5/GpH7-B3 variant S239_18N/GpL16-k0 (antibody, human IgG1, kappa)
heavy 1: not shown
heavy 2: not shown
light: B1 light
notes: copies: 1 + 1 + 2
B35: GpH7-A5/GpH7-B3 variant S267_02A/GpL16-k0 (antibody, human IgG1, kappa)
heavy 1: not shown
heavy 2: not shown
light: B1 light
notes: copies: 1 + 1 + 2
B36: GpH7-A5/GpH7-B3 variant Q295_14T/GpL16-k0 (antibody, human IgG1, kappa)
heavy 1: not shown
heavy 2: not shown
light: B1 light
notes: copies: 1 + 1 + 2
B37: GpH7-A5/GpH7-B3 variant S267_06M/GpL16-k0 (antibody, human IgG1, kappa)
heavy 1: not shown
heavy 2: not shown
light: B1 light
notes: copies: 1 + 1 + 2
B38: GpH7-A5/GpH7-B3 variant S239_07I/GpL16-k0 (antibody, human IgG1, kappa)
heavy 1: not shown
heavy 2: not shown
light: B1 light
notes: copies: 1 + 1 + 2
B39: GpH7-A5/GpH7-B3 variant Q295_03V/GpL16-k0 (antibody, human IgG1, kappa)
heavy 1: not shown
heavy 2: not shown
light: B1 light
notes: copies: 1 + 1 + 2
B40: GpH7-A5/GpH7-B3 variant P331_10E/GpL16-k0 (antibody, human IgG1, kappa)
heavy 1: not shown
heavy 2: not shown
light: B1 light
notes: copies: 1 + 1 + 2
B41: GpH7-A5/GpH7-B3 variant Q295_12R/GpL16-k0 (antibody, human IgG1, kappa)
heavy 1: not shown
heavy 2: not shown
light: B1 light
notes: copies: 1 + 1 + 2
B42: GpH7-A5/GpH7-B3 variant S239_01G/GpL16-k0 (antibody, human IgG1, kappa)
heavy 1: not shown
heavy 2: not shown
light: B1 light
notes: copies: 1 + 1 + 2
B43: GpH7-A5/GpH7-B3 variant P331_12R/GpL16-k0 (antibody, human IgG1, kappa)
heavy 1: not shown
heavy 2: not shown
light: B1 light
notes: copies: 1 + 1 + 2
B44: GpH7-A5/GpH7-B3 variant Q295_11K/GpL16-k0 (antibody, human IgG1, kappa)
heavy 1: not shown
heavy 2: not shown
light: B1 light
notes: copies: 1 + 1 + 2

Molecular target: T1, FcγRIIIa (human, UniProt P08637 17-208)
T1 construct: extracellular domain; also called 3a; FcγRIIIa extracellular domain
T1 sequence (P08637 other isoform, or with tags, fused parts or gaps): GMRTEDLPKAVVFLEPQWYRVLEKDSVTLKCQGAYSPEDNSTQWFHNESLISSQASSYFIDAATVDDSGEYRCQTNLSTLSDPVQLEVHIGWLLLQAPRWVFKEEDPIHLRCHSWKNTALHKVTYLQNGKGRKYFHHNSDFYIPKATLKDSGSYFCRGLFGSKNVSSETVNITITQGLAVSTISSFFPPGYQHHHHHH
Assay: SPR (Biacore);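 also: antibody variants captured on an SPR sensor chip, with FcγRIIIa passed over as analyte in HBS-EP+ buffer at 25 °C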

He/Con 3a | Binder
66 % of GpH7-A5/GpH7-B3/GpL16-k0 | B1
72.4 % of GpH7-A5/GpH7-B3/GpL16-k0 | B2
53.8 % of GpH7-A5/GpH7-B3/GpL16-k0 | B3
75.1 % of GpH7-A5/GpH7-B3/GpL16-k0 | B4
53.3 % of GpH7-A5/GpH7-B3/GpL16-k0 | B5
70.9 % of GpH7-A5/GpH7-B3/GpL16-k0 | B6
179 % of GpH7-A5/GpH7-B3/GpL16-k0 | B7
73.9 % of GpH7-A5/GpH7-B3/GpL16-k0 | B8
73.4 % of GpH7-A5/GpH7-B3/GpL16-k0 | B9
171 % of GpH7-A5/GpH7-B3/GpL16-k0 | B10
111 % of GpH7-A5/GpH7-B3/GpL16-k0 | B11
101 % of GpH7-A5/GpH7-B3/GpL16-k0 | B12
71.9 % of GpH7-A5/GpH7-B3/GpL16-k0 | B13
76.6 % of GpH7-A5/GpH7-B3/GpL16-k0 | B14
73.9 % of GpH7-A5/GpH7-B3/GpL16-k0 | B15
105 % of GpH7-A5/GpH7-B3/GpL16-k0 | B16
85.6 % of GpH7-A5/GpH7-B3/GpL16-k0 | B17
74.4 % of GpH7-A5/GpH7-B3/GpL16-k0 | B18
81.5 % of GpH7-A5/GpH7-B3/GpL16-k0 | B19
93 % of GpH7-A5/GpH7-B3/GpL16-k0 | B20
156 % of GpH7-A5/GpH7-B3/GpL16-k0 | B21
100 % of GpH7-A5/GpH7-B3/GpL16-k0 | B22

He/Con 3a | Binder
67.1 % of GpH7-A5/GpH7-B3/GpL16-k0 | B23
71.6 % of GpH7-A5/GpH7-B3/GpL16-k0 | B24
80.2 % of GpH7-A5/GpH7-B3/GpL16-k0 | B25
90.4 % of GpH7-A5/GpH7-B3/GpL16-k0 | B26
120 % of GpH7-A5/GpH7-B3/GpL16-k0 | B27
61.8 % of GpH7-A5/GpH7-B3/GpL16-k0 | B28
67.8 % of GpH7-A5/GpH7-B3/GpL16-k0 | B29
80.9 % of GpH7-A5/GpH7-B3/GpL16-k0 | B30
74.9 % of GpH7-A5/GpH7-B3/GpL16-k0 | B31
90 % of GpH7-A5/GpH7-B3/GpL16-k0 | B32
85.7 % of GpH7-A5/GpH7-B3/GpL16-k0 | B33
104 % of GpH7-A5/GpH7-B3/GpL16-k0 | B34
149 % of GpH7-A5/GpH7-B3/GpL16-k0 | B35
120 % of GpH7-A5/GpH7-B3/GpL16-k0 | B36
65.3 % of GpH7-A5/GpH7-B3/GpL16-k0 | B37
75 % of GpH7-A5/GpH7-B3/GpL16-k0 | B38
86.2 % of GpH7-A5/GpH7-B3/GpL16-k0 | B39
68.7 % of GpH7-A5/GpH7-B3/GpL16-k0 | B40
73.2 % of GpH7-A5/GpH7-B3/GpL16-k0 | B41
72 % of GpH7-A5/GpH7-B3/GpL16-k0 | B42
64.8 % of GpH7-A5/GpH7-B3/GpL16-k0 | B43
81.8 % of GpH7-A5/GpH7-B3/GpL16-k0 | B44
